The text below walks through data of the supplement of paper PMC10567573.

The chains are these.
B1: NETO1 (parent)
chain: GFSPIIGRFCGQQNPPVIKSSGRF
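Also: lentivirally expressed fusions sorted by FACS into six bins by GFP to DsRed ratio, PSI derived from sequencing read proportions per bin multiplied by bin number.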

In the data set the parent is B1. Nature of the data set: protein stability index of a GFP-peptide fusion (GPS, HEK-293T) (PSI 1-6); higher = more stable. Conditions: c terminus: a fixed tail appended.
As to GFSPIIGRFFGQQNPPVIKSSGRF [C10F], the protein stability index is 2.51.
As for GFSPIIGRFSGQQNPPVIKSSGRF [C10S], the figure is 2.9; as for GFSPIIGRFVGQQNPPVIKSSGRF [C10V], 2.46.
In the case of GFSPIIGRFRGQQNPPVIKSSGRF [C10R], the protein stability index is 2.63.
Take GFSPIIGRFMGQQNPPVIKSSGRF [C10M]: the protein stability index is 2.27.
As for GFSPIIGRFAGQQNPPVIKSSGRF [C10A], the figure is 3.07.
Turning to GFSPIIGRFLGQQNPPVIKSSGRF [C10L], the protein stability index stood at 2.79.
As for GFSPIIGRFQGQQNPPVIKSSGRF [C10Q], the protein stability index came to 2.4.
As for GFSPIIGRFTGQQNPPVIKSSGRF [C10T], the figure is 3.29.
As for GFSPIIGRFDGQQNPPVIKSSGRF [C10D], the figure is 2.71; as for GFSPIIGRFYGQQNPPVIKSSGRF [C10Y], 2.42.
For GFSPIIGRFWGQQNPPVIKSSGRF [C10W], the protein stability index worked out at 2.3.
As for GFSPIIGRFNGQQNPPVIKSSGRF [C10N], the figure is 3.13; as for GFSPIIGRFEGQQNPPVIKSSGRF [C10E], 3.76; as for GFSPIIGRFIGQQNPPVIKSSGRF [C10I], 2.86.
Consider GFSPIIGRFGGQQNPPVIKSSGRF [C10G], for which the protein stability index was found to be 3.05.
The value for GFSPIIGRFHGQQNPPVIKSSGRF [C10H] was 2.38; that for GFSPIIGRFPGQQNPPVIKSSGRF [C10P] was 3.47; that for GFSPIIGRFKGQQNPPVIKSSGRF [C10K] was 2.93.
In the case of GFSPIIGRFCGFQNPPVIKSSGRF [Q12F], the protein stability index was 1.8.
As for GFSPIIGRFCGAQNPPVIKSSGRF [Q12A], the figure is 1.57; as for GFSPIIGRFCGTQNPPVIKSSGRF [Q12T], 2.26; as for GFSPIIGRFCGIQNPPVIKSSGRF [Q12I], 2.16.
As for GFSPIIGRFCGRQNPPVIKSSGRF [Q12R], the figure is 1.78; as for GFSPIIGRFCGYQNPPVIKSSGRF [Q12Y], 2.01; as for GFSPIIGRFCGGQNPPVIKSSGRF [Q12G], 2.26.
The value for GFSPIIGRFCGCQNPPVIKSSGRF [Q12C] was 2.32; that for GFSPIIGRFCGSQNPPVIKSSGRF [Q12S] was 2.03; that for GFSPIIGRFCGKQNPPVIKSSGRF [Q12K] was 2.33.
As to GFSPIIGRFCGDQNPPVIKSSGRF [Q12D], the protein stability index worked out at 2.53.
The value for GFSPIIGRFCGEQNPPVIKSSGRF [Q12E] was 2.35; that for GFSPIIGRFCGLQNPPVIKSSGRF [Q12L] was 1.75; that for GFSPIIGRFCGVQNPPVIKSSGRF [Q12V] was 2.15.
As to GFSPIIGRFCGPQNPPVIKSSGRF [Q12P], the protein stability index amounted to 2.75.
As to GFSPIIGRFCGHQNPPVIKSSGRF [Q12H], the protein stability index amounted to 2.3.
As for GFSPIIGRFCGNQNPPVIKSSGRF [Q12N], the figure is 2.35; as for GFSPIIGRFCGWQNPPVIKSSGRF [Q12W], 1.72; as for GFSPIIGRFCGMQNPPVIKSSGRF [Q12M], 1.94.
As for GFSPIIGSFCGQQNPPVIKSSGRF [R8S], the figure is 2.05; as for GFSPIIGAFCGQQNPPVIKSSGRF [R8A], 2.72; as for GFSPIIGYFCGQQNPPVIKSSGRF [R8Y], 1.83.
With GFSPIIGFFCGQQNPPVIKSSGRF [R8F], the protein stability index turned out to be 1.62.
As for GFSPIIGCFCGQQNPPVIKSSGRF [R8C], the figure is 1.61.
GFSPIIGGFCGQQNPPVIKSSGRF [R8G]: the protein stability index is 2.16.
As for GFSPIIGWFCGQQNPPVIKSSGRF [R8W], the figure is 1.93; as for GFSPIIGLFCGQQNPPVIKSSGRF [R8L], 1.83.
As for GFSPIIGPFCGQQNPPVIKSSGRF [R8P], the figure is 2.61; as for GFSPIIGVFCGQQNPPVIKSSGRF [R8V], 2.23.
As for GFSPIIGTFCGQQNPPVIKSSGRF [R8T], the figure is 2.18; as for GFSPIIGKFCGQQNPPVIKSSGRF [R8K], 2.19; as for GFSPIIGIFCGQQNPPVIKSSGRF [R8I], 2.43.
Consider GFSPIIGHFCGQQNPPVIKSSGRF [R8H], for which the protein stability index worked out at 1.79.
The value for GFSPIIGNFCGQQNPPVIKSSGRF [R8N] was 2.04.
As for GFSPIIGMFCGQQNPPVIKSSGRF [R8M], the figure is 1.76; as for GFSPIIGQFCGQQNPPVIKSSGRF [R8Q], 2.19; as for GFSPIIGEFCGQQNPPVIKSSGRF [R8E], 3.19.
As for GFSPIIGDFCGQQNPPVIKSSGRF [R8D], the protein stability index amounted to 2.63.
As for GFSPIILRFCGQQNPPVIKSSGRF [G7L], the figure is 1.85; as for GFSPIIRRFCGQQNPPVIKSSGRF [G7R], 2.25.
Consider GFSPIIIRFCGQQNPPVIKSSGRF [G7I], for which the protein stability index worked out at 2.88.
With GFSPIITRFCGQQNPPVIKSSGRF [G7T], the protein stability index worked out at 2.47.
The value for GFSPIIPRFCGQQNPPVIKSSGRF [G7P] was 1.65; that for GFSPIIARFCGQQNPPVIKSSGRF [G7A] was 1.73; that for GFSPIIERFCGQQNPPVIKSSGRF [G7E] was 2.39.
As for GFSPIISRFCGQQNPPVIKSSGRF [G7S], the figure is 2.3; as for GFSPIIMRFCGQQNPPVIKSSGRF [G7M], 1.56; as for GFSPIIWRFCGQQNPPVIKSSGRF [G7W], 1.42.
The value for GFSPIIFRFCGQQNPPVIKSSGRF [G7F] was 2.03; that for GFSPIINRFCGQQNPPVIKSSGRF [G7N] was 2.38.
As to GFSPIIYRFCGQQNPPVIKSSGRF [G7Y], the protein stability index stood at 1.64.
The value for GFSPIIKRFCGQQNPPVIKSSGRF [G7K] was 1.89; that for GFSPIIVRFCGQQNPPVIKSSGRF [G7V] was 1.83.
As to GFSPIIHRFCGQQNPPVIKSSGRF [G7H], the protein stability index came to 1.74.
For GFSPIIDRFCGQQNPPVIKSSGRF [G7D], the protein stability index stood at 2.66.
As for GFSPVIGRFCGQQNPPVIKSSGRF [I5V], the figure is 1.87.
The value for GFSPYIGRFCGQQNPPVIKSSGRF [I5Y] was 2.36; that for GFSPLIGRFCGQQNPPVIKSSGRF [I5L] was 2.17.
The value for GFSPNIGRFCGQQNPPVIKSSGRF [I5N] was 2.34; that for GFSPPIGRFCGQQNPPVIKSSGRF [I5P] was 2.79; that for GFSPMIGRFCGQQNPPVIKSSGRF [I5M] was 2.19.
In the case of GFSPRIGRFCGQQNPPVIKSSGRF [I5R], the protein stability index turned out to be 2.79.
The value for GFSPSIGRFCGQQNPPVIKSSGRF [I5S] was 2.62; that for GFSPWIGRFCGQQNPPVIKSSGRF [I5W] was 1.42; that for GFSPTIGRFCGQQNPPVIKSSGRF [I5T] was 2.36.
With GFSPQIGRFCGQQNPPVIKSSGRF [I5Q], the protein stability index came out at 2.52.
On to GFSPIIGRFCGQQAPPVIKSSGRF [N14A], for which the protein stability index was determined as 2.25.
The value for GFSPIIGRFCGQQIPPVIKSSGRF [N14I] was 1.92; that for GFSPIIGRFCGQQYPPVIKSSGRF [N14Y] was 1.99; that for GFSPIIGRFCGQQLPPVIKSSGRF [N14L] was 1.66.
For the variant GFSPIIGRFCGQQHPPVIKSSGRF [N14H], the protein stability index is 2.18.
For GFSPIIGRFCGQQGPPVIKSSGRF [N14G], the protein stability index is 2.19.
In the case of GFSPIIGRFCGQQQPPVIKSSGRF [N14Q], the protein stability index is 3.08.
As for GFSPIIGRFCGQQSPPVIKSSGRF [N14S], the figure is 2.35; as for GFSPIIGRFCGQQKPPVIKSSGRF [N14K], 2.04.
